According to patent publication US20120316071A1 (published 2012):
Where a chain is given by its changes, count along the chain named. Names may count otherwise.

B1: Fab VH5-51_IGHD5-18*01>3_IGHJ4*01 G100K/G104T G24T/S28R/G35V (H:KT TRV) & V3-4_IGLJ1*01 V91L/S96P S57D (Fab, V domains shown)
VH: EVQLVQSGAEVKKPGESLKISCKTSGYRFTSYWIVWVRQMPGKGLEWMGIIYPGDSDTRYSPSFQGQVTISADKSISTAYLQWSSLKASDTAMYYCARRKYSYTYDYFDYWGQGTLVTVSS
VL: QTVVTQEPSFSVSPGGTVTLTCGLSSGSVSTSYYPSWYQQTPGQAPRTLIYSTNTRDSGVPDRFSGSILGNKAALTITGAQADDESDYYCLLYMGPGISYVFGTGTKVTVL
notes: Fab made in E. coli: VH in plasmid A (CH1, His6 and Flag tags), VL in plasmid E (lambda CL); also called H:KT TRV & L:LP S57D
B2: Fab VH5-51_IGHD5-18*01>3_IGHJ4*01 G100K/G104T G24T/S28R/G35V (H:KT TRV) & V3-4_IGLJ1*01 V91L/S96P S57R (Fab, V domains shown)
VH: B1 VH
VL: B1 VL with D57R
notes: Fab made in E. coli: VH in plasmid A (CH1, His6 and Flag tags), VL in plasmid E (lambda CL); also called H:KT TRV & L:LP S57R
B3: Fab VH5-51_IGHD5-18*01>3_IGHJ4*01 G100K/G104T G24T/S28R/G35V (H:KT TRV) & V3-4_IGLJ1*01 V91L/S96P S57M (Fab, V domains shown)
VH: B1 VH
VL: B1 VL with D57M
notes: Fab made in E. coli: VH in plasmid A (CH1, His6 and Flag tags), VL in plasmid E (lambda CL); also called H:KT TRV & L:LP S57M
B4: Fab VH5-51_IGHD5-18*01>3_IGHJ4*01 G100K/G104T G24T/S28R/G35V (H:KT TRV) & V3-4_IGLJ1*01 V91L/S96P S57T (Fab, V domains shown)
VH: B1 VH
VL: B1 VL with D57T
notes: Fab made in E. coli: VH in plasmid A (CH1, His6 and Flag tags), VL in plasmid E (lambda CL); also called H:KT TRV & L:LP S57T
B5: Fab VH5-51_IGHD5-18*01>3_IGHJ4*01 G100K/G104T G24T/S28R/G35V (H:KT TRV) & V3-4_IGLJ1*01 V91L/S96P S57I (Fab, V domains shown)
VH: B1 VH
VL: B1 VL with D57I
notes: Fab made in E. coli: VH in plasmid A (CH1, His6 and Flag tags), VL in plasmid E (lambda CL); also called H:KT TRV & L:LP S57I
B6: Fab VH5-51_IGHD5-18*01>3_IGHJ4*01 G100K/G104T G24T/S28R/G35V (H:KT TRV) & V3-4_IGLJ1*01 V91L/S96P S57P (Fab, V domains shown)
VH: B1 VH
VL: B1 VL with D57P
notes: Fab made in E. coli: VH in plasmid A (CH1, His6 and Flag tags), VL in plasmid E (lambda CL); also called H:KT TRV & L:LP S57P
B7: Fab VH5-51_IGHD5-18*01>3_IGHJ4*01 G100K/G104T G24T/S28R/G35V (H:KT TRV) & V3-4_IGLJ1*01 V91L/S96P S57H (Fab, V domains shown)
VH: B1 VH
VL: B1 VL with D57H
notes: Fab made in E. coli: VH in plasmid A (CH1, His6 and Flag tags), VL in plasmid E (lambda CL); also called H:KT TRV & L:LP S57H
B8: Fab VH5-51_IGHD5-18*01>3_IGHJ4*01 G100K/G104T G24T/S28R/G35V (H:KT TRV) & V3-4_IGLJ1*01 V91L/S96P S57V (Fab, V domains shown)
VH: B1 VH
VL: B1 VL with D57V
notes: Fab made in E. coli: VH in plasmid A (CH1, His6 and Flag tags), VL in plasmid E (lambda CL); also called H:KT TRV & L:LP S57V
B9: Fab VH5-51_IGHD5-18*01>3_IGHJ4*01 G100K/G104T G24T/S28R/G35V (H:KT TRV) & V3-4_IGLJ1*01 V91L/S96P T53R (Fab, V domains shown)
VH: B1 VH
VL: B1 VL with T53R, D57S
notes: Fab made in E. coli: VH in plasmid A (CH1, His6 and Flag tags), VL in plasmid E (lambda CL); also called H:KT TRV & L:LP T53R
B10: Fab VH5-51_IGHD5-18*01>3_IGHJ4*01 G100K/G104T G24T/S28R/G35V (H:KT TRV) & V3-4_IGLJ1*01 V91L/S96P S57L (Fab, V domains shown)
VH: B1 VH
VL: B1 VL with D57L
notes: Fab made in E. coli: VH in plasmid A (CH1, His6 and Flag tags), VL in plasmid E (lambda CL); also called H:KT TRV & L:LP S57L
B11: Fab VH5-51_IGHD5-18*01>3_IGHJ4*01 G100K/G104T G24T/S28R/G35V (H:KT TRV) & V3-4_IGLJ1*01 V91L/S96P T53G (Fab, V domains shown)
VH: B1 VH
VL: B1 VL with T53G, D57S
notes: Fab made in E. coli: VH in plasmid A (CH1, His6 and Flag tags), VL in plasmid E (lambda CL); also called H:KT TRV & L:LP T53G
B12: Fab VH5-51_IGHD5-18*01>3_IGHJ4*01 G100K/G104T G24T/S28R/G35V (H:KT TRV) & V3-4_IGLJ1*01 V91L/S96P S57F (Fab, V domains shown)
VH: B1 VH
VL: B1 VL with D57F
notes: Fab made in E. coli: VH in plasmid A (CH1, His6 and Flag tags), VL in plasmid E (lambda CL); also called H:KT TRV & L:LP S57F
B13: Fab VH5-51_IGHD5-18*01>3_IGHJ4*01 G100K/G104T G24T/S28R/G35V (H:KT TRV) & V3-4_IGLJ1*01 V91L/S96P T53W (Fab, V domains shown)
VH: B1 VH
VL: B1 VL with T53W, D57S
notes: Fab made in E. coli: VH in plasmid A (CH1, His6 and Flag tags), VL in plasmid E (lambda CL); also called H:KT TRV & L:LP T53W
B14: Fab VH5-51_IGHD5-18*01>3_IGHJ4*01 G100K/G104T G24T/S28R/G35V (H:KT TRV) & V3-4_IGLJ1*01 V91L/S96P S57K (Fab, V domains shown)
VH: B1 VH
VL: B1 VL with D57K
notes: Fab made in E. coli: VH in plasmid A (CH1, His6 and Flag tags), VL in plasmid E (lambda CL); also called H:KT TRV & L:LP S57K
B15: Fab VH5-51_IGHD5-18*01>3_IGHJ4*01 G100K/G104T G24T/S28R/G35V (H:KT TRV) & V3-4_IGLJ1*01 V91L/S96P S57W (Fab, V domains shown)
VH: B1 VH
VL: B1 VL with D57W
notes: Fab made in E. coli: VH in plasmid A (CH1, His6 and Flag tags), VL in plasmid E (lambda CL); also called H:KT TRV & L:LP S57W
B16: Fab VH5-51_IGHD5-18*01>3_IGHJ4*01 G100K/G104T G24T/S28R/G35V (H:KT TRV) & V3-4_IGLJ1*01 V91L/S96P S57N (Fab, V domains shown)
VH: B1 VH
VL: B1 VL with D57N
notes: Fab made in E. coli: VH in plasmid A (CH1, His6 and Flag tags), VL in plasmid E (lambda CL); also called H:KT TRV & L:LP S57N
B17: Fab VH5-51_IGHD5-18*01>3_IGHJ4*01 G100K/G104T G24T/S28R/G35V (H:KT TRV) & V3-4_IGLJ1*01 V91L/S96P S57E (Fab, V domains shown)
VH: B1 VH
VL: B1 VL with D57E
notes: Fab made in E. coli: VH in plasmid A (CH1, His6 and Flag tags), VL in plasmid E (lambda CL); also called H:KT TRV & L:LP S57E

biological target: T1, Recombinant Human DLL4 (delta-like protein 4) (human, UniProt Q9NR61 27-524); experiment: ELISA, DLL4 coated on plate, 100 nM Fab
T1 construct: Bought recombinant human DLL4 (R&D Systems Cat#1506-D4/CF) coated on the ELISA plate; also called rHuman DLL4; Delta-like ligand 4

| Binder | ELISA Signal-blank (100 nM Fab) |
| --- | --- |
| B1 | 0.17 |
| B2 | 0.18 |
| B3 | 0.3 |
| B4 | 0.3 |
| B5 | 0.24 |
| B6 | 0.36 |
| B7 | 0.21 |
| B8 | 0.34 |
| B9 | 0.05 |
| B10 | 0.3 |
| B11 | 0.08 |
| B12 | 0.1 |
| B13 | 0.06 |
| B14 | 0.17 |
| B15 | 0.12 |
| B16 | 0.24 |
| B17 | 0.2 |
